Results reported in US20040235112.

Key:
GST-p38 = GST-p38 (UniProt Q16539)
GST-cJun(1-79) = GST-cJun(1-79) (UniProt P05412)
GST-JNK2 = GST-JNK2 (UniProt P45984)
GST-ATF2 = molecular target: T1, GST-ATF2 (UniProt P15336)
T1 sequence: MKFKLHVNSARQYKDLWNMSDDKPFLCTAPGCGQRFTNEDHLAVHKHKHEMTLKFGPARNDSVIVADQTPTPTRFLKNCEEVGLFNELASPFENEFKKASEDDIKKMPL

Sequence of GST-p38 (Q16539 whole entry): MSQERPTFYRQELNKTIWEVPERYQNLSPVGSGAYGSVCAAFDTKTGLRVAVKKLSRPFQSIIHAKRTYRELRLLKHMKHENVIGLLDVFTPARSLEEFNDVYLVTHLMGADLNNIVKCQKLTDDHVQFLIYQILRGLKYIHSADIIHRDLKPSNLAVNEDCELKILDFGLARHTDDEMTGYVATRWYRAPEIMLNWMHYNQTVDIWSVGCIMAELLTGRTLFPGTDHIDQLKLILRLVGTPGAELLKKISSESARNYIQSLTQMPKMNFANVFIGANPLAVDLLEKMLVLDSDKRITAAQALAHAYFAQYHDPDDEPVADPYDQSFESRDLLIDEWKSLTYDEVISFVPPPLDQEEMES
Sequence of GST-cJun(1-79) (P05412 1-79): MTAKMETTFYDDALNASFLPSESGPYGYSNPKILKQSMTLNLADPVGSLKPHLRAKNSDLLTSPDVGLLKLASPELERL
Sequence of GST [GST: P08515] (P08515 whole entry): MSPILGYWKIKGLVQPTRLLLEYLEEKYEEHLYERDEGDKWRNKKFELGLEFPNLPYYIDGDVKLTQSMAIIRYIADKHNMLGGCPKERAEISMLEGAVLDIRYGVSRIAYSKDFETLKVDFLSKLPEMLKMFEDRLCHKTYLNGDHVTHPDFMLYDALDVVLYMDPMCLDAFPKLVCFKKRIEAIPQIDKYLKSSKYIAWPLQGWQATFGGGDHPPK

Substance	phosphorylation of GST-p38 in immune complex kinase assay (HeLa lysates, anti-HA 12CA5 immunoprecipitate) (GST-p38)	phosphorylation of substrate in in vitro kinase assay ([γ-32P]ATP, SDS-PAGE, autoradiography) (GST [GST: P08515])	phosphorylation of substrate in in vitro kinase assay ([γ-32P]ATP, SDS-PAGE, autoradiography) (GST-p38)	phosphorylation of GST-Jun(1-79) in coupled in vitro kinase assay (GST-cJun(1-79))	phosphorylation of substrate in in vitro kinase assay ([γ-32P]ATP, SDS-PAGE, autoradiography) (His-ERK1[K52R])	phosphorylation of substrate in in vitro kinase assay ([γ-32P]ATP, SDS-PAGE, autoradiography) (GST-JNK2)	phosphorylation of GST-ATF2 in coupled in vitro kinase assay (GST-ATF2)
3xHA-MEK6	MEK6 activation by anisomycin as measured by its ability to phosphorylate p38, was observed as early as 10 min after treatment	–	–	–	–	–	–
GST-MEK6	–	MEK6 efficiently phosphorylated p38 but none of the other substrates	MEK6 efficiently phosphorylated p38 but none of the other substrates	MEK6 did not cause increased phosphorylation of Jun (GST-Jun(1-79) ...) either directly or in combination with JNK2	MEK6 efficiently phosphorylated p38 but none of the other substrates	MEK6 efficiently phosphorylated p38 but none of the other substrates	ATF2 was not directly phosphorylated by MEK6
